In US20220098305A1 (Hoffmann-La Roche, published 2022):
Blank lines part the entries; values can stand above or below the binder they belong to.

Legend:
human FAP = molecular target: T1, human FAP (human, UniProt Q12884 1-760); experiment: flow cytometry, NIH/3T3-huFAP clone 19 cells
T1 construct: also called hu FAP

human ICOS [1] = molecular target: T2, human ICOS (human, UniProt Q9Y6W8 21-199); experiment: flow cytometry, SR cells
T2 construct: The cell that carries it is named under assay; also called huICOS; CD278
T2 sequence: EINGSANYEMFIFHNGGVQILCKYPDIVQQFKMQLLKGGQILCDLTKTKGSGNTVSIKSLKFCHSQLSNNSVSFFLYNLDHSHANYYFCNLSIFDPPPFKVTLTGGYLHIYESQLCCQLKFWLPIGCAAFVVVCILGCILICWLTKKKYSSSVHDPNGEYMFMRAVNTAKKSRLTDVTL

human ICOS [2] = molecular target: T2, human ICOS; experiment: flow cytometry on SR cells expressing human ICOS, geometric MFI
human ICOS [3] = molecular target: T2, human ICOS; experiment: flow cytometry, CHO cells expressing human ICOS
human ICOS [4] = molecular target: T2, human ICOS; experiment: cell-based or functional assay
human ICOS [5] = molecular target: T2, human ICOS; experiment: flow cytometry on CHO cells expressing human ICOS, PE-labelled secondary antibody; y axis printed LOG10(MFI PE)
human ICOS [6] = molecular target: T2, human ICOS; experiment: flow cytometry on CHO cells stably expressing human ICOS, PE-labelled secondary antibody, median fluorescence intensity (MFI)
Procedure: (§1) Briefly, suspension cells were harvested, counted, checked for viability and re-suspended at 1 million cells per ml in FACS buffer (PBS with 0.1% BSA). […] The staining was fixed for 20 min at 4° C. in the dark, using 75 μl of 1% PFA in FACS buffer per well.
(§2) Fluorescence was analyzed by FACS using a FACS Fortessa (Software FACS Diva). Binding curves and EC50 values were obtained using GraphPadPrism 7.

human ICOS [7] = molecular target: T2, human ICOS; experiment: flow cytometry, CHO cells expressing human ICOS; remark: listed apart in the source
Procedure: as §1, §2

human ICOS [8] = molecular target: T2, human ICOS; experiment: flow cytometry on CHO cells expressing human ICOS, PE-labelled secondary antibody; y axis printed LOG10(MFI PE); remark: listed apart in the source

B1: Molecule 21, bispecific 2+1 anti-ICOS (1143v1)/anti-FAP (4B9) huIgG1 P329GLALA kih (bispecific antibody)
heavy 1: QSLEESGGDLVKPGASLTLTCKASGFDFSSAYDMSWVRQAPGKGLEWIGVVYYGDGITYYATWAKGRFTISKTSSTTVPLQMTSLTAADTATYFCARGAFLGSSYYLSLWGQGTLVTVSSASTKGPSVFPLAPSSKSTSGGTAALGCLVKDYFPEPVTVSWNSGALTSGVHTFPAVLQSSGLYSLSSVVTVPSSSLGTQTYICNVNHKPSNTKVDKKVEPKSCDKTHTCPPCPAPEAAGGPSVFLFPPKPKDTLMISRTPEVTCVVVDVSHEDPEVKFNWYVDGVEVHNAKTKPREEQYNSTYRVVSVLTVLHQDWLNGKEYKCKVSNKALGAPIEKTISKAKGQPREPQVCTLPPSRDELTKNQVSLSCAVKGFYPSDIAVEWESNGQPENNYKTTPPVLDSDGSFFLVSKLTVDKSRWQQGNVFSCSVMHEALHNHYTQKSLSLSPGGGGGSGGGGSGGGGSGGGGSEIVLTQSPGTLSLSPGERATLSCRASQSVTSSYLAWYQQKPGQAPRLLINVGSRRATGIPDRFSGSGSGTDFTLTISRLEPEDFAVYYCQQGIMLPPTFGQGTKVEIK
heavy 2: not shown
light: AIDMTQTPASVEAAVGGTVTINCQASENIYNWLAWYQQKPGQPPKLLIYDASKLASGVPSRFSASGSGTQFTLTISAVESADAATYYCQQAYTYGNIDNAFGGGTEVVVSRTVAAPSVFIFPPSDEQLKSGTASVVCLLNNFYPREAKVQWKVDNALQSGNSQESVTEQDSKDSTYSLSSTLTLSKADYEKHKVYACEVTHQGLSSPVTKSFNRGEC
- EC50 (human FAP): 0.00501 nM
- EC50 (human ICOS [1]): 0.00057 nM
- EC50 (read off the curve) (human ICOS [2]): ~0.5 nM

B3: Molecule 27 (ICOS H009v1_3) (antibody, human IgG1, kappa, L234A L235A, V domains shown)
VH: EVQLVESGGGLVQPGRSLRLSCTASGFTFSDYWMNWVRQAPGKGLEWVAQIRNKPYNYETYYAASVKGRFTISRDDSKSIAYLQMNSLKTEDTAVYYCTWPRLRSSDWHFDVWGKGTTVTVSS
VL: DIQMTQSPSSLSASVGDRVTITCQASQDINKNIAWYQQKPGKAPKLLIWYTSTLQTGVPSRFSGSGSGTDFTFTISSLQPEDIATYYCLQFDNLYTFGQGTKLEIKR
notes: Human IgG format
- EC50 (human ICOS [3]): 2.7 nM
- Max (Log10(MFI)) (human ICOS [3]): 6.85 Log10(MFI)
- EC50 of activation of Jurkat-NFAT reporter cell line (human ICOS [4]): ~7.99 nM
- Max (Counts/sec), Jurkat-NFAT reporter cell line (human ICOS [4]): 47400 Counts/sec

B5: Molecule 1 (JMab136 IgG) (antibody, V domains shown)
VH: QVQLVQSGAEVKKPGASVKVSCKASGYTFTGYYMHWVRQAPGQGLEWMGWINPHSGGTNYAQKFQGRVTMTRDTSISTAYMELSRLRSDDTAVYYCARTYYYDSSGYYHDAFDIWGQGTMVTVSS
VL: DIQMTQSPSSVSASVGDRVTITCRASQGISRLLAWYQQKPGKAPKLLIYVASSLQSGVPSRFSGSGSGTDFTLTISSLQPEDFATYYCQQANSFPWTFGQGTKVEIK
notes: IgG
- EC50 (read off the curve) (human ICOS [6]): ~2 nM
- EC50 (human ICOS [7]): 0.0023 nM

B6: Molecule 28 (ICOS 1143v2) (antibody, human IgG1, kappa, L234A L235A, V domains shown)
VH: QSLEESGGDLVKPGASLTLTCKASGFDFSSAYDMSWVRQAPGKGLEWIGVIYYGDGITYYATSVKGRFTISKTSSTTVPLQMTSLTAADTATYFCARGAFLGSSYYLSLWGQGTLVTVSS
VL: AIDMTQTPASVEAAVGGTVTINCQASENIYNWLAWYQQKPGQPPKLLIYDASKLASGVPSRFSASGSGTQFTLTISAVESADAATYYCQQAYTYGNIDNAFGGGTEVVVSR
notes: Human IgG format; also called parent antibody of Molecules 29-31
- EC50 (human ICOS [3]): 2.56 nM
- Max (Log10(MFI)) (human ICOS [3]): 4.88 Log10(MFI)
- EC50 of activation of Jurkat-NFAT reporter cell line (human ICOS [4]): 28 nM
- Max (Counts/sec), Jurkat-NFAT reporter cell line (human ICOS [4]): 52300 Counts/sec
- EC50 (read off the curve) (human ICOS [8]): ~3 nM

B7: Molecule 29 (ICOS H1143v2_1) (antibody, human IgG1, kappa, L234A L235A, V domains shown)
VH: EVQLLESGGGLVQPGGSLRLSCAASGFDFSSAYDMSWVRQAPGKGLEWVSVIYYGDGITYYADSVKGRFTISRDNSKNTLYLQMNSLRAEDTAVYFCARGAFLGSSYYLSLWGQGTLVTVSS
VL: DIQMTQSPSSLSASVGDRVTITCRASENIYNWLAWYQQKPGKAPKLLIYDASKLASGVPSRFSGSGSGTDFTLTISSLQPEDFATYYCQQAYTYGNIDNAFGGGTKVEIKR
notes: Human IgG format
- EC50 (human ICOS [3]): 5.2 nM
- Max (Log10(MFI)) (human ICOS [3]): 2.38 Log10(MFI)
- EC50 of activation of Jurkat-NFAT reporter cell line (human ICOS [4]): 27.6 nM
- Max (Counts/sec), Jurkat-NFAT reporter cell line (human ICOS [4]): 63800 Counts/sec
- EC50 (read off the curve) (human ICOS [8]): ~6 nM

Next, values leading:

- EC50 (human FAP): 0.00434 nM
- EC50 (human ICOS [1]): 0.00217 nM
- EC50 (read off the curve) (human ICOS [2]): ~2 nM
B2: Molecule 44, bispecific 2+1 anti-ICOS (1143)/anti-FAP (4B9) huIgG1 P329GLALA kih (bispecific antibody)
heavy 1: QSLEESGGDLVKPGASLTLTCKASGFDFSSAYDMSWVRQAPGKGLEWIGSVYYGDGITYYATWAKGRFTISKTSSTTVPLQMTSLTAADTATYFCARGAFLGSSYYLSLWGQGTLVTVSSASTKGPSVFPLAPSSKSTSGGTAALGCLVKDYFPEPVTVSWNSGALTSGVHTFPAVLQSSGLYSLSSVVTVPSSSLGTQTYICNVNHKPSNTKVDKKVEPKSCDKTHTCPPCPAPEAAGGPSVFLFPPKPKDTLMISRTPEVTCVVVDVSHEDPEVKFNWYVDGVEVHNAKTKPREEQYNSTYRVVSVLTVLHQDWLNGKEYKCKVSNKALGAPIEKTISKAKGQPREPQVCTLPPSRDELTKNQVSLSCAVKGFYPSDIAVEWESNGQPENNYKTTPPVLDSDGSFFLVSKLTVDKSRWQQGNVFSCSVMHEALHNHYTQKSLSLSPGGGGGSGGGGSGGGGSGGGGSEIVLTQSPGTLSLSPGERATLSCRASQSVTSSYLAWYQQKPGQAPRLLINVGSRRATGIPDRFSGSGSGTDFTLTISRLEPEDFAVYYCQQGIMLPPTFGQGTKVEIK
heavy 2: not shown
light: AIDMTQTPASVEAAVGGTVTINCQASENIYNWLAWYQQKPGQPPKLLIYDASKLASGVPSRFSASGSGTQFTLTISAVESADAATYYCQQAYTYGNIDNAFGGGTEVVVSRTVAAPSVFIFPPSDEQLKSGTASVVCLLNNFYPREAKVQWKVDNALQSGNSQESVTEQDSKDSTYSLSSTLTLSKADYEKHKVYACEVTHQGLSSPVTKSFNRGEC

- EC50 (human ICOS [3]): 2.12 nM
- Max (Log10(MFI)) (human ICOS [3]): 4.3 Log10(MFI)
- EC50 (read off the curve) (human ICOS [5]): ~2 nM
- EC50 of activation of Jurkat-NFAT reporter cell line (human ICOS [4]): 38.7 nM
- Max (Counts/sec), Jurkat-NFAT reporter cell line (human ICOS [4]): 28500 Counts/sec
B4: Molecule 32 (ICOS 1138) (antibody, human IgG1, kappa, L234A L235A, V domains shown)
VH: QSLEESGGDLVKPGASLTLTCTASGFDLSSYYYMSWVRQAPGKGLEWIASIYADIYGGTTHYASWAKGRFTISKTSSTTVTLQMTSLTAADTATYFCAREDGSRYGGSGYYNLWGPGTLVTVSS
VL: ALVMTQTPSSVSAAVGGTVTINCQASQNIYSNLAWYQQKPGQPPKLLIYAASYLTSGVSSRFKGSGAGTQFTLTISGVESADAATYYCQQGHTTDNIDNAFGGGTEVVVKR
notes: Human IgG format; also called parental antibody of Molecules 33-35

- EC50 (human ICOS [3]): 1.75 nM
- Max (Log10(MFI)) (human ICOS [3]): 4.44 Log10(MFI)
- EC50 of activation of Jurkat-NFAT reporter cell line (human ICOS [4]): 23.2 nM
- Max (Counts/sec), Jurkat-NFAT reporter cell line (human ICOS [4]): 52000 Counts/sec
- EC50 (read off the curve) (human ICOS [8]): ~2 nM
B8: Molecule 31 (ICOS H1143v2_3) (antibody, human IgG1, kappa, L234A L235A, V domains shown)
VH: EVQLLESGGGLVQPGGSLRLSCAASGFDFSSAYDMSWVRQAPGKGLEWIGVIYYGDGITYYADSVKGRFTISRDNSNTLYLQMNSLRAEDTAVYFCARGAFLGSSYYLSLWGQGTLVTVSS
VL: DIQMTQSPSSLSASVGDRVTITCRASENIYNWLAWYQQKPGKAPKLLIYDASKLASGVPSRFSGSGSGTDFTLTISSLQPEDFATYYCQQAYTYGNIDNAFGGGTKVEIKR
notes: Human IgG format

- EC50 (human ICOS [3]): 2.25 nM
- Max (Log10(MFI)) (human ICOS [3]): 2.75 Log10(MFI)
- EC50 of activation of Jurkat-NFAT reporter cell line (human ICOS [4]): 29.4 nM
- Max (Counts/sec), Jurkat-NFAT reporter cell line (human ICOS [4]): 55300 Counts/sec
- EC50 (read off the curve) (human ICOS [8]): ~2 nM
B9: Molecule 30 (ICOS H1143v2_2) (antibody, human IgG1, kappa, L234A L235A, V domains shown)
VH: EVQLLESGGGLVQPGGSLRLSCAASGFDFSSAYDMSWVRQAPGKGLEWVSVIYYGDGITYYADSVKGRFTISKTSSKTTLYLQMNSLRAEDTAVYFCARGAFLGSSYYLSLWGQGTLVTVSS
VL: DIQMTQSPSSLSASVGDRVTITCRASENIYNWLAWYQQKPGKAPKLLIYDASKLASGVPSRFSGSGSGTDFTLTISSLQPEDFATYYCQQAYTYGNIDNAFGGGTKVEIKR
notes: Human IgG format
